Reference: patent US20190135911A1, “TREATING RESPIRATORY DISEASES BY TARGETING INTERLEUKIN 4 INDUCED 1 (IL4I1)” (Five Prime Therapeutics, Inc., priority 2016, published 2019)
“Also recorded” adds a separate entry of the source.

Test system: moDCs in co-culture with bronchial epithelial cells from COPD patients
Test: moDC / COPD bronchial epithelial cell co-culture treated with IL4I1, DC mRNA levels (Quantigene multiplex panel)
Assay type: cell-based, human
Conditions: IL4I1 serially diluted into basolateral media; 24 hr BEC pre-incubation, 24 hr co-culture with DCs (COPD donor #AB63); normalized to GAPDH; FIG. 2
Excerpt: To differentiate airway epithelium in vitro, healthy smoker derived bronchial epithelial cells (Lonza lot #7F3833, 489, 237440, 899; Epithelix lot #13086) and COPD patient derived bronchial epithelial cells (Lonza lot #3313, 498, 3207, 3379; Epithelix lot #AB63, 472) were expanded according to the Lonza protocol with the following modification: the cells were subjected to two passages in Lonza BEBM media with supplements as reported in Widdicombe et al. (BioTechniques 39:249-255, August 2005). Cells were seeded onto collagen coated 0.4 um 96 transwell plates at 15,000 cells per 75 μl of the above media, and 235 μl of the same media was added to the basolateral receiver plate. After 3 days (with a single apical media change of the same volume), the apical media was completely removed in an airlift. To induce differentiation the cells were then cultured for 18 days with PneumaCult-ALI Medium (StemCell Technologies, #05001).
DC were generated as follows. […] After 48 hrs of cell culture, DC were lysed and mRNA levels were measured by microarray. […]
Co-cultures were initiated as described above. […] After 24 hr coculture the DCs were lysed and mRNA levels were measured with an Affymetrix Quantigene multiplex panel on a FlexMap 3D instrument. For each gene the relative luminescence was normalized to a housekeeper gene GAPDH.

B1: IL4I1: Human IL4I1 protein (R&D Systems #5684-AO) added to the co-culture media (protein, UniProt Q96RQ9 22-567, looked up)
L-amino-acid oxidase: QDWKAERSQDPFEKCMQDPDYEQLLKVVTWGLNRTLKPQRVIVVGAGVAGLVAAKVLSDAGHKVTILEADNRIGGRIFTYRDQNTGWIGELGAMRMPSSHRILHKLCQGLGLNLTKFTQYDKNTWTEVHEVKLRNYVVEKVPEKLGYALRPQEKGHSPEDIYQMALNQALKDLKALGCRKAMKKFERHTLLEYLLGEGNLSRPAVQLLGDVMSEDGFFYLSFAEALRAHSCLSDRLQYSRIVGGWDLLPRALLSSLSGLVLLNAPVVAMTQGPHDVHVQIETSPPARNLKVLKADVVLLTASGPAVKRITFSPPLPRHMQEALRRLHYVPATKVFLSFRRPFWREEHIEGGHSNTDRPSRMIFYPPPREGALLLASYTWSDAAAAFAGLSREEALRLALDDVAALHGPVVRQLWDGTGVVKRWAEDQHSQGGFVVQPPALWQTEKDDWTVPYGRIYFAGEHTAYPHGWVETAVKSALRAAIKINSRKGPASDTASPEGHASDMEGQGHVHGVASSPSHDLAKEEGSHPPVQGQLSLQNTTHTRTSH
  mRNA expression of dendritic cell genes (CXCL5, PTGES, S100A8, SERPINB2, THBS1): enhanced mRNA expression; also recorded: further enhances the expression
